Patent publication US20080045463

Target: T1, biotinylated HIF-1α ODD peptide, Q16665
T1 chain: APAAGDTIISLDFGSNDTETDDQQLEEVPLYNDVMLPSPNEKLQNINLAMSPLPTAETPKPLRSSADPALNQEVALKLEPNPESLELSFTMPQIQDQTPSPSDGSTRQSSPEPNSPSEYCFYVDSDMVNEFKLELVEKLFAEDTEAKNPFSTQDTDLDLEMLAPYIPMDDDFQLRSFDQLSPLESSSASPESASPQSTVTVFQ

Row | Protein | ^35S-pVHL pulldown enzyme assay activity (Pro564 hydroxylation of the peptide)
1 | Human HPH-1 (protein) MPLGHIMRLDLEKIALEYIVPCLHEVGFCYLDNFLGEVVGDCVLERVKQLHCTGALRDGQLAGPRAGVSKRHLRGDQITWIGGNEEGCEAISFLLSLIDRLVLYCGSRLGKYYVKERSKAMVACYPGNGTGYVRHVDNPNGDGRCITCIYYLNKNWDAKLHGGILRIFPEGKSFIADVEPIFDRLLFFWSDRRNPHEVQPSYATRYAMTVWYFDAEERAEAKKKFRNLTRKTESALTED | As exemplified by HPH-1, the ^35S-pVHL pulldown enzyme assay activity of each HPH homologue was dependent on 2-OG, Fe(II), and ascorbate
2 | Human HPH-2 (protein) MANDSGGPGGPSPSERDRQYCELCGKMENLLRCSRCRSSFYCCKEHQRQDWKKHKLVCQGSEGALGHGVGPHQHSGPAPPAAVPPPRAGAREPRKAAARRDNASGDAAKGKVKAKPPADPAAAASPCRAAAGGQGSAVAAEAEPGKEEPPARSSLFQEKANLYPPSNTPGDALSPGGGLRPNGQTKPLPALKLALEYIVPCMNKHGICVVDDFLGKETGQQIGDEVRALHDTGKFTDGQLVSQKSDSSKDIRGDKITWIEGKEPGCETIGLLMSSMDDLIRHCNGKLGSYKINGRTKAMVACYPGNGTGYVRHVDNPNGDGRCVTCIYYLNKDWDAKVSGGILRIFPEGKAQFADIEPKFDRLLFFWSDRRNPHEVQPAYATRYAITVWYFDADERARAKVKYLTGEKGVRVELNKPSDSVGKDVF | the ^35S-pVHL pulldown enzyme assay activity of each HPH homologue was dependent on 2-OG, Fe(II), and ascorbate
